{"source": "patent US20220332804A1", "about": "(CSL INNOVATION, published 2022)", "experiment_in_all_cases": "SPR, KD relative to WT C2;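 further: biacore SPR at 37 °C, anti-C2 mAbs captured via immobilised goat anti-human IgG, C2 alanine or serine surface mutants as analytes, 1:1 model fitted, double-referenced sensograms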", "key": {"human C2 S708A": {"target": "T1, human C2 S708A (human, UniProt P06681 21-752)", "T1 sequence": "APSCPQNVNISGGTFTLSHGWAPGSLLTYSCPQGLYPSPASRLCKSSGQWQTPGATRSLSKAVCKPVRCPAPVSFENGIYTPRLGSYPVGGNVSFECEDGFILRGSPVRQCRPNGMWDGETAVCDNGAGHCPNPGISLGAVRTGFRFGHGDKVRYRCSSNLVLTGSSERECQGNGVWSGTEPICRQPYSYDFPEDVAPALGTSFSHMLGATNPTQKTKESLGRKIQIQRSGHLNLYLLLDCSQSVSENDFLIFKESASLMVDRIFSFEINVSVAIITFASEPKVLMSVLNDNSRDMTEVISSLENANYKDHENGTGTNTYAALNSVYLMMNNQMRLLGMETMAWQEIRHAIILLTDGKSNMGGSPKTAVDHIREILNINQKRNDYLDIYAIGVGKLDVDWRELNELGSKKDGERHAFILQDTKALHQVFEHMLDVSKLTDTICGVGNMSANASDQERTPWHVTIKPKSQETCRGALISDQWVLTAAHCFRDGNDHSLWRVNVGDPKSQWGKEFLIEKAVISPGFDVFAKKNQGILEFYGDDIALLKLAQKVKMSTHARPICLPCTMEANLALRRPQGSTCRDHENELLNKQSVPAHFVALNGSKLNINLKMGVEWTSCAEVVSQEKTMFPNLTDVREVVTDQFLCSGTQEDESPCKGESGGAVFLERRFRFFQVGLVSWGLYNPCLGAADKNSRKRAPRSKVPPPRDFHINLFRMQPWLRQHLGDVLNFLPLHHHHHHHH"}, "human C2 D417A": {"target": "T2, human C2 D417A (human, UniProt P06681 21-752)", "T2 sequence": "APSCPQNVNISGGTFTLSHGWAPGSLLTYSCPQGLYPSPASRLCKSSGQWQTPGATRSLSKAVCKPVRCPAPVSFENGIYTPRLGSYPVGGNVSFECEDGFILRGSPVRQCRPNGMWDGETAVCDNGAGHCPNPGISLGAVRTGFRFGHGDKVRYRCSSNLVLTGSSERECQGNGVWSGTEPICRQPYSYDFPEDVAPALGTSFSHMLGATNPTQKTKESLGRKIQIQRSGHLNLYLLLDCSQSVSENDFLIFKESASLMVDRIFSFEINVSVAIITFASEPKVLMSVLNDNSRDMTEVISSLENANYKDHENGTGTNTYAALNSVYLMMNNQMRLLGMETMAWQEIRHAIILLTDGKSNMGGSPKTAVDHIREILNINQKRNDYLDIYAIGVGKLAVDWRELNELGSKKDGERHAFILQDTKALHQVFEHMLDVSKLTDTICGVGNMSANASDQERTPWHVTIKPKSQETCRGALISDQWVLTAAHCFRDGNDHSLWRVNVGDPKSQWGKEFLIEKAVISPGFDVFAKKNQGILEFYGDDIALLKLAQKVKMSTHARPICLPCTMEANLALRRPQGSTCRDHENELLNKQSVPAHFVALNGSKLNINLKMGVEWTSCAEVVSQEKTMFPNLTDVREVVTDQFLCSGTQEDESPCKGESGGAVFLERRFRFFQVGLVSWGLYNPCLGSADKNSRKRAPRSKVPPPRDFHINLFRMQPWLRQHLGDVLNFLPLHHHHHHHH"}, "human C2 R434A": {"target": "T3, human C2 R434A (human, UniProt P06681 21-752)", "T3 sequence": "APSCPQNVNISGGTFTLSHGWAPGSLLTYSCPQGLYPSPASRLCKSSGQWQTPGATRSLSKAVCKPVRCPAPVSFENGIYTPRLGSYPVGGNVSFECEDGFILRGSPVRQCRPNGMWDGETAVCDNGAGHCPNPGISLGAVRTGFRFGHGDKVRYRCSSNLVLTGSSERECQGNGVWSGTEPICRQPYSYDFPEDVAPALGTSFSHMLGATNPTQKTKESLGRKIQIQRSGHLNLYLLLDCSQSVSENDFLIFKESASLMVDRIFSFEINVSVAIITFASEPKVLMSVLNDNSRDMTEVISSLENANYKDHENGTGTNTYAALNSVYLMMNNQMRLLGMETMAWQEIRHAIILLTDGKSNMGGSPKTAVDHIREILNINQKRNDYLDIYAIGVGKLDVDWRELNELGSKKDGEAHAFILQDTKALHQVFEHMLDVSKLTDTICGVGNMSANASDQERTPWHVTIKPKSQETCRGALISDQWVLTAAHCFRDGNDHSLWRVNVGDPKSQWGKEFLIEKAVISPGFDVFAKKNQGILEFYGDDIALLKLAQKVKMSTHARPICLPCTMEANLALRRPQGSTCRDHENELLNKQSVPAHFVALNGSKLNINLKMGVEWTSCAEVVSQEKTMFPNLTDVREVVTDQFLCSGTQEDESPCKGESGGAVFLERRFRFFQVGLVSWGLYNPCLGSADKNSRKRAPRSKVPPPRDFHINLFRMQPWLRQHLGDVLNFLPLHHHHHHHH"}, "human C2 G707A": {"target": "T4, human C2 G707A (human, UniProt P06681 21-752)", "T4 sequence": "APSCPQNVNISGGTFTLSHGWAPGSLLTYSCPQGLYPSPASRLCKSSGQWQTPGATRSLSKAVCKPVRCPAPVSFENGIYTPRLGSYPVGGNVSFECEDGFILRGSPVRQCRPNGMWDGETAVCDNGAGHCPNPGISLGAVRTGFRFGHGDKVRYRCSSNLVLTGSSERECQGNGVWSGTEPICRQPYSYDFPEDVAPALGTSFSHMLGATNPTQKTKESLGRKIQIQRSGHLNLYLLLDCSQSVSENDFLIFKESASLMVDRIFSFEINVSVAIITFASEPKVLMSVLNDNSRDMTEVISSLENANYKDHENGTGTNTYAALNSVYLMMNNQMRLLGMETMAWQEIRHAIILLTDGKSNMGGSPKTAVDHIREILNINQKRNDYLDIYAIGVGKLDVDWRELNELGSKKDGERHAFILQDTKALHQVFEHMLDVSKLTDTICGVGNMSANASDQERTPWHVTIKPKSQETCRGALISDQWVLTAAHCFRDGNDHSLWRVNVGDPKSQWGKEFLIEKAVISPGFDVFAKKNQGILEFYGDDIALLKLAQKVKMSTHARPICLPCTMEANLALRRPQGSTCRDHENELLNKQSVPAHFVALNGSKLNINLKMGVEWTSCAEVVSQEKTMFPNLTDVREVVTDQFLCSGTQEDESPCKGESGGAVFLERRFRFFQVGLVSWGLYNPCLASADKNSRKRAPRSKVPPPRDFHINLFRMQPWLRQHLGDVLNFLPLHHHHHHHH"}}}
{"binder": "RF16-226 (antibody, human IgG4 S228P, lambda, pH-dependent anti-C2 antibody from a phage display library; also called WT) heavy: not shown light: SYELTQPPSVSVSPGQTARITCSGDALTSKYVAWYQQKSGLAPLLVIYEDTRRPSGIPAKFSGSSSGSVATLTISGAHGDDEADYYCYSTDASGHQRVFGGGTKLTVLSQPKAAPSVTLFPPSSEELQANKATLVCLISDFYPGAVTVAWKADGSPVKAGVETTKPSKQSNNKYAASSYLSLTPEQWKSHRSYSCQVTHEGSTVEKTVAPTECS", "values": [{"measurement": "Fold diff", "setting": "human C2 S708A", "result": 2, "unit": "fold"}, {"measurement": "Fold diff", "setting": "human C2 D417A", "result": 2, "unit": "fold"}, {"measurement": "Fold diff", "setting": "human C2 R434A", "result": 14, "unit": "fold"}, {"measurement": "Fold diff", "setting": "human C2 G707A", "result": 2, "unit": "fold"}]}
